Assay results: the RNAGym collection of RNA variant scans (doi:10.7554/elife.80360)

B1: HDV Ribozyme (parent)
chain: GGCCGGCAUGGUCCCAGCCUCCUCGCUGGCGCCGGCUGGGCAACAUUCCGAGGGGACCGUCCCCUCGGUAAUGGCGAAUGGGACCCA

Variants of: B1
Assay: self-cleavage, relative activity (ratio to wild type); higher = more cleavage; co-transcriptional

| Variant | self-cleavage |
| --- | --- |
| C4A C30A | 0.0519 |
| C3U G68A | 0.831 |
| C3U G68C | 0.781 |
| C3U G68U | 0.866 |
| C4A C41G | 0.0519 |
| C4A C41U | 0.163 |
| C3A G73U | 0.111 |
| C4A A16U | 0.0665 |
| C4A A71C | 0.156 |
| C3U C21A | 0.122 |
| C3U C21U | 0.101 |
| C3U C41G | 0.499 |
| C3U C41A | 0.807 |
| C3U U65A | 0.872 |
| C3U U65C | 0.78 |
| C4A C15U | 0.0378 |
| C4A C15G | 0.166 |
| C3G A78U | 0.125 |
| C4A C18G | 0.166 |
| C4A C18A | 0.0277 |
| C3G C66A | 0.585 |
| C3U A43U | 0.496 |
| C3U A43G | 0.342 |
| C3U A43C | 0.293 |

| Variant | self-cleavage |
| --- | --- |
| C3U C48G | 0.641 |
| C3U C48A | 0.675 |
| C3A U37G | 0.0685 |
| C3A U37C | 0.661 |
| C3U C4G | 0 |
| C3U C4U | 0.655 |
| C3G G5A | 0.18 |
| C3G G5C | 1.5 |
| C3U G73C | 0.304 |
| C3U G40U | 0.594 |
| C3U G40A | 0.857 |
| C3U C32G | 0.0769 |
| C3U C32A | 0.053 |
| C3G C22U | 0.179 |
| C3G C22G | 0 |
| C3G C22A | 0.119 |
| C3G G50A | 0.589 |
| C3G U65A | 0.648 |
| C3G U65G | 0.751 |
| C4A C7U | 0.0519 |
| C4A C7G | 0.104 |
| C3U C44A | 0.492 |
| C4A C63A | 0.354 |
| C3G C62A | 0.789 |

| Variant | self-cleavage |
| --- | --- |
| C3G C62G | 0.169 |
| C3U C33U | 0.769 |
| C4A C75G | 0.0396 |
| C3A U20A | 0.0683 |
| C3A U20G | 0.0163 |
| C3G G76U | 0.926 |
| C3G G76A | 0.984 |
| C3G G76C | 0.65 |
| C4A C33A | 0 |
| C4A A56C | 0.287 |
| C4A A56G | 0.217 |
| C4A A56U | 0.321 |
| C3G G29C | 0.0396 |
| C3U C19U | 0.126 |
| C3U C19G | 0.0171 |
| C3U A87U | 0.725 |
| C4A A77C | 0.0462 |
| C3U A77C | 0.0639 |
| C3U C14A | 0.594 |
| C3G G67A | 0.682 |
| C3G G67C | 0.524 |
| C3U U60C | 0.943 |
| C4A C66A | 0.177 |
| C3G G39C | 0.157 |

| Variant | self-cleavage |
| --- | --- |
| C3G G39A | 0.0594 |
| C3U A51G | 0.577 |
| C3G C84G | 0.41 |
| C3G C84U | 0.736 |
| C3G A42U | 0.116 |
| C3G A42G | 0.138 |
| C4A C13U | 0.0739 |
| C3G G25A | 0.0511 |
| C3G G25C | 0.0292 |
| C3U A71C | 0.427 |
| C3U A71U | 0.742 |
| C3G C49A | 0.736 |
| C3G C49U | 0.673 |
| C4A C14G | 0.175 |
| C3U A83G | 0.554 |
| C3U A83C | 0.318 |
| C3G G6U | 0.0665 |
| C3A U72A | 0.07 |
| C3A U65G | 0.718 |
| C3U C61U | 0.923 |
| C3U C36G | 0.0519 |
| C3U C36U | 0.356 |
| C3A G29U | 0.0316 |
| C3A G29C | 0 |

| Variant | self-cleavage |
| --- | --- |
| C4A C26G | 0.348 |
| C3G G54A | 0.683 |
| C3G G54C | 0.674 |
| C3U G28A | 0.0294 |
| C3G C7A | 0.0213 |
| C3A G53U | 0.527 |
| C3A G53C | 0.635 |
| C3U G34U | 0.141 |
| C3A U46G | 0.026 |
| C3G U47G | 0.457 |
| C3G U47A | 0.594 |
| C3G U47C | 0.54 |
| C3U G31A | 0.329 |
| C4A A70C | 0.136 |
| C3G G31A | 0.0608 |
| C3G G31C | 0.0455 |
| C3A U60C | 0.499 |
| C3U G38C | 0.122 |
| C3U G38U | 0.111 |
| C3U G38A | 0.0811 |
| C3G G80U | 0.0801 |
| C3U U27C | 0.262 |
| C3U U27G | 0.723 |
| C3G G10A | 0.107 |

| Variant | self-cleavage |
| --- | --- |
| C4A C86U | 0.284 |
| C4A C24A | 0.0475 |
| C3G A16U | 0.655 |
| C3G A16C | 0.208 |
| C3U G67C | 0.772 |
| C3A G31U | 0.0339 |
| C3U A70C | 0.566 |
| C3G C18U | 0.04 |
| C3G C18A | 0.0542 |
| C3G C18G | 0.0475 |
| C3U C22A | 0.161 |
| C3U C22G | 0.0193 |
| C3G G34U | 0.323 |
| C3U C64U | 0.954 |
| C3G C14U | 0.817 |
| C3G C14G | 0.268 |
| C3G C30U | 0.156 |
| C3U C86G | 0.848 |
| C3U G80A | 0.175 |
| C3U G80C | 0.159 |
| C3U G80U | 0.114 |
| C3U G76U | 0.973 |
| C3G C86G | 1.14 |
| C3G C86A | 0.876 |

| Variant | self-cleavage |
| --- | --- |
| C4A C48G | 0.148 |
| C3A U9A | 0.657 |
| C3U C84G | 0.636 |
| C3U C84A | 0.665 |
| C3G C41G | 0.241 |
| C4A C57A | 0.541 |
| C4A C57U | 0.237 |
| C3G A43U | 0.233 |
| C3G A43C | 0.261 |
| C3G C32A | 0 |
| C3G C32U | 0.198 |
| C3G C32G | 0.0282 |
| C4A C21U | 0.0346 |
| C4A C21A | 0 |
| C3A U69A | 0.406 |
| C3A U69G | 0.567 |
| C3G G28U | 0.0357 |
| C3G G28A | 0.0326 |
| C3G G38U | 0.166 |
| C4A C49U | 0.282 |
| C4A C49A | 0.424 |
| C3U U79G | 0.489 |
| C3U U79C | 0.342 |
